Assay results taken from patent US20260174875A1 (Novo Nordisk A/S, priority 2023, published 2026).
Numbered stars: 1 amine (or outer) side, 2 acyl side, 3 side chain; on linkers, the order of the positions; unused ones are H or OH. Square brackets hold non-standard residues; d marks the D form. Side chains are listed from the residue outwards. * marks the point of attachment. Chem. 22 = C20 diacid gamma-Glu, O=C(O)CCCCCCCCCCCCCCCCCCC(=O)N[C@@H](CCC(=O)*)C(=O)O; C18 diacid = O=C(O)CCCCCCCCCCCCCCCCC(=O)*; γGlu = O=C(O)[C@H](CCC(=O)[*:2])N[*:1]; Chem. 28 = not defined here; Chem. 29 = not defined here; AEEA = NCCOCCOCC(=O)O; Aib = CC(C)(N)C(=O)O

B1: Compound 33 (peptide)
peptide: Y[Aib]EGTFTSDYSILLEEQAAREFIEWLLAGGPSK(Chem. 28)GAPPEASELSTAALGRLSAELHELATLPRTETGSGSP-NH2
modifications: reading uncertain
B2: Compound 35 (peptide)
peptide: Y[Aib]EGTFTSDYSILLEEQAAREFIEWLLAGGPSK(Chem. 28)GEASHLSTAQTARLSAELHELATLPRTETGSGSP-NH2
modifications: reading uncertain
B3: Compound 42 (peptide)
peptide: Y[Aib]EGTFTSDYSILLEEQAAREFIEWLLAGGPSSK(Chem. 22)APPPSGGGEASELSTAALGRLSAELHRLATLPRTETGSGSP-NH2
B4: Compound 34 (peptide)
peptide: Y[Aib]EGTFTSDYSILLEEQAAREFIEWLLAGGPSK(Chem. 28)GEASHLSTAQTQRLSAELHELATLPRTETGSGSP-NH2
modifications: reading uncertain
B5: Compound 20 (peptide)
peptide: Y[Aib]EGTFTSDYSILLEEQAAREFIEWLLAGGPSK(Chem. 29)GASELSTAALGRLSAELHRLATLPRTETGSGSP-NH2
modifications: reading uncertain
B6: Compound 54 (peptide)
peptide: Y[Aib]EGTFTSDYSILLEEQAAREFIEWLLAGGPSSGAGQAPGQAPGASK(Chem. 28)LSTAQTQRLSAELHRLATLPRTETGSGSP-NH2
modifications: reading uncertain
B7: Compound 46 (peptide)
peptide: H[Aib]HGTFTSDYSILLEEQAAREFIEWLLAGGPSK(Chem. 28)GAGQAPGQAPGASHLSTAALGRLSAELHRLATLPRTETGSGSP-NH2
modifications: reading uncertain
B8: Compound 66 (peptide)
peptide: H[Aib]HGTFTSDYSILLEEQAAREFIEWLLAGGPSK([AEEA-AEEA-γGlu-C18 diacid])GEASQLSTAALGRLSAELHHLATLPRTETGSGSP-NH2
B9: Compound 18 (peptide)
peptide: Y[Aib]EGTFTSDYSILLEEQAAREFIEWLLAGGPSK(Chem. 29)GEASELSTAALGRLSAELHRLATLPRTETGSGSP-NH2
modifications: reading uncertain
B10: Compound 41 (peptide)
peptide: Y[Aib]EGTFTSDYSILLEEQAAREFIEWLLAGGPSK(Chem. 22)GAPPPSGGGEASELSTAALGRLSAELHRLADLPRTETGSGSP-NH2

Experiments:
Experiment in all cases: cell-based or functional assay
[1] = target: T1, human amylin-3(a) receptor (human, UniProt P30988 25-474; O60896 24-148)
T1 sequence (looked up) 1: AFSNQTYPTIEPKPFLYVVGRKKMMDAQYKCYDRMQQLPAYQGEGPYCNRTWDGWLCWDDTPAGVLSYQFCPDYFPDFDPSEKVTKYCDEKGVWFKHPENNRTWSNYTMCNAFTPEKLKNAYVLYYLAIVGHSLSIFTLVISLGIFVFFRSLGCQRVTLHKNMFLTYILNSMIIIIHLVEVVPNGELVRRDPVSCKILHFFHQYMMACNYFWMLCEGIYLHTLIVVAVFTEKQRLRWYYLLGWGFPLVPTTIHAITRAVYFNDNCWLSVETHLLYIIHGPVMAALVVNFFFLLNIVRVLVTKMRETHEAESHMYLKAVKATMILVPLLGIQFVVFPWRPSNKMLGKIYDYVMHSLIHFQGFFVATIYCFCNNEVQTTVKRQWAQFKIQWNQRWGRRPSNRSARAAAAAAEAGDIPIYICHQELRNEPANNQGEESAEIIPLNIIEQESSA
T1 sequence (looked up) 2: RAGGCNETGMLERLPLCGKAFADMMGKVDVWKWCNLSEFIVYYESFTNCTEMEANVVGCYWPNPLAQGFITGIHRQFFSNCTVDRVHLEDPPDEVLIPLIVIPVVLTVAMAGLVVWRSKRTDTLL

[2] = target: human GLP-1 receptor (human, UniProt P43220 24-463)
[3] = target: T2, human GIP receptor (human, UniProt P48546 22-466)
T2 sequence (looked up): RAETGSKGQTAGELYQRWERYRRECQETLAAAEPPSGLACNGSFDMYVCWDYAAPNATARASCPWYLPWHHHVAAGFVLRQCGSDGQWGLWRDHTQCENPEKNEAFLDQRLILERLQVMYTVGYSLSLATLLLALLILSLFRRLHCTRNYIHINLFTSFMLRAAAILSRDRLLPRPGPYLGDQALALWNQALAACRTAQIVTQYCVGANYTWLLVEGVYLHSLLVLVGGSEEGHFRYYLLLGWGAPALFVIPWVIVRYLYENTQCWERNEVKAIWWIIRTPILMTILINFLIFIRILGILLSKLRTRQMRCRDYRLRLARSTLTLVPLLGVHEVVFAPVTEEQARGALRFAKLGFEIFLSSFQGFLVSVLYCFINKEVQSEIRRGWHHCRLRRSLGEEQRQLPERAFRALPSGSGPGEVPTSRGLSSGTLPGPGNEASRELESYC

Binder | hAMYR3 Potency, no HSA, EC50 [pM] [1] | hGLP-1R Potency, no HSA, EC50 [pM] [2] | hGIPR Potency, no HSA, EC50 [pM] [3]
B1 | 10.3 pM | 32.1 pM | 3.11 pM
B2 | 4.21 pM | 23.3 pM | 1.97 pM
B3 | 3.42 pM | 61.3 pM | 8.01 pM
B4 | 6.81 pM | 21.7 pM | 1.7 pM
B5 | 3.65 pM | 40.6 pM | 4.82 pM
B6 | 3.02 pM | 28.8 pM | 5.56 pM
B7 | 4.41 pM | 4.59 pM | 5.42 pM
B8 | 2.32 pM | 5.25 pM | 2.39 pM
B9 | 3.93 pM | 52.8 pM | 7.25 pM
B10 | 6.72 pM | 40.8 pM | 5.02 pM
